Measured values taken from patent US20190106509A1 (PROTHIX B V, published 2019).
Read-outs that look alike come from different tables or passages of the source.

Tests used:
[1] = target: T1, human coagulation factor XI (FXI) (human, UniProt P03951 19-625); assay: SPR (Biacore), FXI immobilized on CM5 chip, mAb as analyte
T1 construct: mature; also called plasma FXI; human FXI
Description: (§1) Surface plasmon resonance was on a Biacore 2000 (GE Healthcare) equipped with a research-grade cm5 sensor chip to assess the affinity constants of the mAbs for FXI. Factor XI was immobilized using amine-coupling chemistry. the surface was activated for 7 min with a 1:1 mixture of 0.1 M N-hydroxysuccinimide and 0.1 M 3-(N,N-dimethylamino) propyl-N-ethylcarbodiimide at a flow rate of 10 l per min. The ligand at a concentration of 10 μg/ml in 10 mM sodium acetate, pH 5.5, was immobilized at a density of 1000 ru. An untreated flow cell served as a reference surface. All the surfaces were blocked with a 7 min injection of 1 M ethanolamine, pH 8.0. The following protocol was used to assess kinetic binding of the mAbs to FXI. […] The complex was allowed to associate and dissociate for 360 and 600 seconds, respectively. The surfaces were regenerated with a 10 seconds injection of 50 mM NaOH. Triplicate injections (in random order) of each sample and a buffer blank were flowed over the two surfaces. Data were collected at a rate of 1 Hz. The data were fit to a simple 1:1 interaction model using the global data analysis option available within BiaEvaluation 4.1 software.

[2] = target: T1, human coagulation factor XI (FXI); assay: cell-based or functional assay
[3] = target: T1, human coagulation factor XI (FXI); assay: SPR (Biacore), FXI immobilized on CM5 chip, mAb as analyte; remark: listed apart in the source
Description: as §1

[4] = target: T1, human coagulation factor XI (FXI); assay: competition ELISA on coated human FXI; competitor biotinylated murine mAb anti-FXI 34.2
Excerpt: The binding of the biotinylated antibody was detected with streptavidin-HRP (Sigma) and OPD substrate (Sigma. The reaction was stopped with 3M HCl, absorbance read at 490 nm on a Dynex Technologies MRX TC II plate reader and the binding curves plotted.

| Kd [1] [nM] | APTT (% NPP) [2] [% NPP] | Kd [3] [nM] | Relative IC50 [4] | Binder |
| --- | --- | --- | --- | --- |
| 0.2 | – | – | – | mouse mAb anti-FXI 34.2 (antibody, V domains shown, Mouse IgG purified from hybridoma supernatant by protein G) VH: QVQLQQPGSELVRPGASVKLSCKASGYTFTRYWMHWVKQRHGQGLEWIGNIYPDSDSTNYDEKFRTKATLTADTSSSTAYMHLSSLTSEDSAVYYCTRMGFYAMDYWGQGTSVTVSS VL: NIVMTQSPKSMSMSVGERVTLSCKASENVVTYVSWFQHKPEQSPKLLIYGASNRYTGVPDRFTGSGSATDFTLTISSVQAEDLADYHCGQSYSYPLTFGAGTKLELKR |
| – | 243 | 0.88 | 0.92 relative to IC50 of mouse-human chimeric mAb anti-FXI 34.2 | composite human mAb VH2/Vκ2 (antibody, V domains shown, Human IgG4 (S241P hinge mutant) heavy chain and human kappa light chain) VH: QVQLVQSGSELKKPGASVKLSCKASGYTFTRYWMHWVKQAPGQGLEWIGNIYPDSDSTNYDEKFRTRATLTADTSTSTAYMELSSLRSEDTAVYYCTRMGFYAMDYWGQGTTVTVSS VL: NIVMTQSPSSLSASVGDRVTITCKASENVVTYVSWFQQKPGQAPKLLIYGASNRYTGVPDRFSGSGSATDFTLTISSLQAEDVADYHCGQSYSYPLTFGQGTKLEIKR |
| – | 255 | 0.42 | 1.13 relative to IC50 of mouse-human chimeric mAb anti-FXI 34.2 | composite human mAb VH3/Vκ4 (antibody, V domains shown, Human IgG4 (S241P hinge mutant) heavy chain and human kappa light chain) VH: QVQLVQSGSELKKPGASVKLSCKASGYTFTRYWMHWVRQAPGQGLEWIGNIYPDSDSTNYDEKFRTRVTLTADTSTSTAYMELSSLRSEDTAVYYCTRMGFYAMDYWGQGTTVTVSS VL: DIVMTQSPSSLSASVGDRVTITCKASENVVTYVSWFQQKPGQAPKLLIYGASNRYTGVPDRFSGSGSGTDFTLTISSLQAEDVATYHCGQSYSYPLTFGQGTKLEIKR |
| – | 259 | 0.062 | 0.98 relative to IC50 of mouse-human chimeric mAb anti-FXI 34.2 | composite human mAb VH2/Vκ4 (antibody, V domains shown, Human IgG4 (S241P hinge mutant) heavy chain and human kappa light chain) VH: QVQLVQSGSELKKPGASVKLSCKASGYTFTRYWMHWVKQAPGQGLEWIGNIYPDSDSTNYDEKFRTRATLTADTSTSTAYMELSSLRSEDTAVYYCTRMGFYAMDYWGQGTTVTVSS VL: DIVMTQSPSSLSASVGDRVTITCKASENVVTYVSWFQQKPGQAPKLLIYGASNRYTGVPDRFSGSGSGTDFTLTISSLQAEDVATYHCGQSYSYPLTFGQGTKLEIKR |
| – | 252 | 0.24 | 0.84 relative to IC50 of mouse-human chimeric mAb anti-FXI 34.2 | composite human mAb VH2/Vκ1 (antibody, V domains shown, Human IgG4 (S241P hinge mutant) heavy chain and human kappa light chain) VH: QVQLVQSGSELKKPGASVKLSCKASGYTFTRYWMHWVKQAPGQGLEWIGNIYPDSDSTNYDEKFRTRATLTADTSTSTAYMELSSLRSEDTAVYYCTRMGFYAMDYWGQGTTVTVSS VL: NIVMTQSPSSLSASVGDRVTITCKASENVVTYVSWFQQKPGQAPKLLIYGASNRYTGVPDRFTGSGSATDFTLTISSLQAEDVADYHCGQSYSYPLTFGQGTKLEIKR |
| – | 257 | 0.17 | 0.91 relative to IC50 of mouse-human chimeric mAb anti-FXI 34.2 | composite human mAb VH1/Vκ3 (antibody, V domains shown, Human IgG4 (S241P hinge mutant) heavy chain and human kappa light chain) VH: QVQLVQSGSELKKPGASVKLSCKASGYTFTRYWMHWVKQAHGQGLEWIGNIYPDSDSTNYDEKFRTRATLTADTSTSTAYMHLSSLTSEDSAVYYCTRMGFYAMDYWGQGTSVTVSS VL: DIVMTQSPSSLSASVGDRVTITCKASENVVTYVSWFQQKPGQAPKLLIYGASNRYTGVPDRFSGSGSGTDFTLTISSLQAEDVADYHCGQSYSYPLTFGQGTKLEIKR |
| – | 256 | 0.081 | 0.99 relative to IC50 of mouse-human chimeric mAb anti-FXI 34.2 | composite human mAb VH3/Vκ3 (antibody, V domains shown, Human IgG4 (S241P hinge mutant) heavy chain and human kappa light chain) VH: QVQLVQSGSELKKPGASVKLSCKASGYTFTRYWMHWVRQAPGQGLEWIGNIYPDSDSTNYDEKFRTRVTLTADTSTSTAYMELSSLRSEDTAVYYCTRMGFYAMDYWGQGTTVTVSS VL: DIVMTQSPSSLSASVGDRVTITCKASENVVTYVSWFQQKPGQAPKLLIYGASNRYTGVPDRFSGSGSGTDFTLTISSLQAEDVADYHCGQSYSYPLTFGQGTKLEIKR |
| – | 247 | 0.51 | 0.93 relative to IC50 of mouse-human chimeric mAb anti-FXI 34.2 | composite human mAb VH2/Vκ3 (antibody, V domains shown, Human IgG4 (S241P hinge mutant) heavy chain and human kappa light chain) VH: QVQLVQSGSELKKPGASVKLSCKASGYTFTRYWMHWVKQAPGQGLEWIGNIYPDSDSTNYDEKFRTRATLTADTSTSTAYMELSSLRSEDTAVYYCTRMGFYAMDYWGQGTTVTVSS VL: DIVMTQSPSSLSASVGDRVTITCKASENVVTYVSWFQQKPGQAPKLLIYGASNRYTGVPDRFSGSGSGTDFTLTISSLQAEDVADYHCGQSYSYPLTFGQGTKLEIKR |
| – | 255 | 0.079 | 0.87 relative to IC50 of mouse-human chimeric mAb anti-FXI 34.2 | composite human mAb VH3/Vκ2 (antibody, V domains shown, Human IgG4 (S241P hinge mutant) heavy chain and human kappa light chain) VH: QVQLVQSGSELKKPGASVKLSCKASGYTFTRYWMHWVRQAPGQGLEWIGNIYPDSDSTNYDEKFRTRVTLTADTSTSTAYMELSSLRSEDTAVYYCTRMGFYAMDYWGQGTTVTVSS VL: NIVMTQSPSSLSASVGDRVTITCKASENVVTYVSWFQQKPGQAPKLLIYGASNRYTGVPDRFSGSGSATDFTLTISSLQAEDVADYHCGQSYSYPLTFGQGTKLEIKR |
| – | 260 | 0.35 | 0.89 relative to IC50 of mouse-human chimeric mAb anti-FXI 34.2 | composite human mAb VH1/Vκ4 (antibody, V domains shown, Human IgG4 (S241P hinge mutant) heavy chain and human kappa light chain) VH: QVQLVQSGSELKKPGASVKLSCKASGYTFTRYWMHWVKQAHGQGLEWIGNIYPDSDSTNYDEKFRTRATLTADTSTSTAYMHLSSLTSEDSAVYYCTRMGFYAMDYWGQGTSVTVSS VL: DIVMTQSPSSLSASVGDRVTITCKASENVVTYVSWFQQKPGQAPKLLIYGASNRYTGVPDRFSGSGSGTDFTLTISSLQAEDVATYHCGQSYSYPLTFGQGTKLEIKR |
| – | 250 | 0.13 | 0.87 relative to IC50 of mouse-human chimeric mAb anti-FXI 34.2 | composite human mAb VH3/Vκ1 (antibody, V domains shown, Human IgG4 (S241P hinge mutant) heavy chain and human kappa light chain) VH: QVQLVQSGSELKKPGASVKLSCKASGYTFTRYWMHWVRQAPGQGLEWIGNIYPDSDSTNYDEKFRTRVTLTADTSTSTAYMELSSLRSEDTAVYYCTRMGFYAMDYWGQGTTVTVSS VL: NIVMTQSPSSLSASVGDRVTITCKASENVVTYVSWFQQKPGQAPKLLIYGASNRYTGVPDRFTGSGSATDFTLTISSLQAEDVADYHCGQSYSYPLTFGQGTKLEIKR |
| – | 248 | 0.25 | 0.69 relative to IC50 of mouse-human chimeric mAb anti-FXI 34.2 | composite human mAb VH1/Vκ2 (antibody, V domains shown, Human IgG4 (S241P hinge mutant) heavy chain and human kappa light chain) VH: QVQLVQSGSELKKPGASVKLSCKASGYTFTRYWMHWVKQAHGQGLEWIGNIYPDSDSTNYDEKFRTRATLTADTSTSTAYMHLSSLTSEDSAVYYCTRMGFYAMDYWGQGTSVTVSS VL: NIVMTQSPSSLSASVGDRVTITCKASENVVTYVSWFQQKPGQAPKLLIYGASNRYTGVPDRFSGSGSATDFTLTISSLQAEDVADYHCGQSYSYPLTFGQGTKLEIKR |
| – | 253 | 0.12 | 0.75 relative to IC50 of mouse-human chimeric mAb anti-FXI 34.2 | composite human mAb VH1/Vκ1 (antibody, V domains shown, Human IgG4 (S241P hinge mutant) heavy chain and human kappa light chain) VH: QVQLVQSGSELKKPGASVKLSCKASGYTFTRYWMHWVKQAHGQGLEWIGNIYPDSDSTNYDEKFRTRATLTADTSTSTAYMHLSSLTSEDSAVYYCTRMGFYAMDYWGQGTSVTVSS VL: NIVMTQSPSSLSASVGDRVTITCKASENVVTYVSWFQQKPGQAPKLLIYGASNRYTGVPDRFTGSGSATDFTLTISSLQAEDVADYHCGQSYSYPLTFGQGTKLEIKR |
